Measurements published in patent US20150065381A1.
Where “and” joins values, the source holds several entries; their conditions need not be identical. Equal entries are not always repeated.

What was measured:
[1] = target: HIV-1 envelope of gp160 clone B-Acute-010.c09 (HIV-1); assay: capture ELISA, plate 1, mAb 0.8 ug/ml
[2] = target: HIV-1 envelope of gp160 clone B-Acute-008.c11 (HIV-1); assay: capture ELISA, plate 1, mAb 0.8 ug/ml
[3] = target: HIV-1 16055 envelope (HIV-1); assay: capture ELISA, plate 1, mAb 0.8 ug/ml
[4] = target: HIV-1 envelope clone G-011.c05 (multiclade gp160 clone panel) (HIV-1); assay: capture ELISA, plate 1, mAb 0.8 ug/ml
[5] = target: HIV-1 envelope clone G-011.c02 (multiclade gp160 clone panel) (HIV-1); assay: capture ELISA, plate 1, mAb 0.8 ug/ml
[6] = target: HIV-1 envelope of gp160 clone B-Chronic-014.c02 (HIV-1); assay: capture ELISA, plate 1, mAb 0.8 ug/ml
[7] = target: HIV-1 JRFL envelope (HIV-1); assay: capture ELISA, plate 1, mAb 0.8 ug/ml
[8] = target: HIV-1 envelope clone BF-002.c05 (multiclade gp160 clone panel) (HIV-1); assay: capture ELISA, plate 1, mAb 0.8 ug/ml
[9] = target: HIV-1 envelope clone F1-002.c16 (multiclade gp160 clone panel) (HIV-1); assay: capture ELISA, plate 1, mAb 0.8 ug/ml
[10] = target: HIV-1 JRCSF envelope (HIV-1) (UniProt P20871); assay: capture ELISA, plate 2, mAb 2.5 ug/ml
[11] = target: HIV-1 envelope of gp160 clone B-Acute-010.c09 (HIV-1); assay: capture ELISA, plate 2, mAb 2.5 ug/ml
[12] = target: HIV-1 envelope clone F1-002.c11 (multiclade gp160 clone panel) (HIV-1); assay: capture ELISA, plate 2, mAb 2.5 ug/ml
[13] = target: HIV-1 envelope of gp160 clone B-Acute-010.c08 (HIV-1); assay: capture ELISA, plate 2, mAb 2.5 ug/ml
[14] = target: HIV-1 envelope clone G-011.c05 (multiclade gp160 clone panel) (HIV-1); assay: capture ELISA, plate 2, mAb 2.5 ug/ml
[15] = target: HIV-1 envelope of gp160 clone AG-010.c14 (HIV-1); assay: capture ELISA, plate 2, mAb 2.5 ug/ml
[16] = target: HIV-1 envelope of gp160 clone B-Acute-009-c08 (HIV-1); assay: capture ELISA, plate 2, mAb 2.5 ug/ml
[17] = target: HIV-1 envelope clone G-011.c02 (multiclade gp160 clone panel) (HIV-1); assay: capture ELISA, plate 2, mAb 2.5 ug/ml
[18] = target: HIV-1 envelope of gp160 clone B-Chronic-014.c02 (HIV-1); assay: capture ELISA, plate 2, mAb 2.5 ug/ml
[19] = target: HIV-1 JRFL envelope (HIV-1); assay: capture ELISA, plate 2, mAb 2.5 ug/ml
[20] = target: HIV-1 envelope clone F1-002.c16 (multiclade gp160 clone panel) (HIV-1); assay: capture ELISA, plate 2, mAb 2.5 ug/ml
[21] = target: HIV-1 envelope clone BF-002.c08 (multiclade gp160 clone panel) (HIV-1); assay: capture ELISA, plate 2, mAb 2.5 ug/ml
[22] = target: HIV-1 JRCSF envelope (HIV-1) (UniProt P20871); assay: capture ELISA, plate 2, mAb 0.3 ug/ml
[23] = target: HIV-1 envelope of gp160 clone B-Acute-010.c09 (HIV-1); assay: capture ELISA, plate 2, mAb 0.3 ug/ml
[24] = target: HIV-1 envelope of gp160 clone B-Acute-008.c11 (HIV-1); assay: capture ELISA, plate 2, mAb 0.3 ug/ml
[25] = target: HIV-1 envelope clone F1-002.c11 (multiclade gp160 clone panel) (HIV-1); assay: capture ELISA, plate 2, mAb 0.3 ug/ml
[26] = target: HIV-1 16055 envelope (HIV-1); assay: capture ELISA, plate 2, mAb 0.3 ug/ml
[27] = target: HIV-1 envelope of gp160 clone B-Acute-010.c08 (HIV-1); assay: capture ELISA, plate 2, mAb 0.3 ug/ml
[28] = target: HIV-1 envelope clone G-011.c05 (multiclade gp160 clone panel) (HIV-1); assay: capture ELISA, plate 2, mAb 0.3 ug/ml
[29] = target: HIV-1 envelope of gp160 clone AG-010.c14 (HIV-1); assay: capture ELISA, plate 2, mAb 0.3 ug/ml
[30] = target: HIV-1 envelope of gp160 clone B-Acute-009-c08 (HIV-1); assay: capture ELISA, plate 2, mAb 0.3 ug/ml
[31] = target: HIV-1 envelope clone G-011.c02 (multiclade gp160 clone panel) (HIV-1); assay: capture ELISA, plate 2, mAb 0.3 ug/ml
[32] = target: HIV-1 envelope of gp160 clone AG-010.c11 (HIV-1); assay: capture ELISA, plate 2, mAb 0.3 ug/ml
[33] = target: HIV-1 envelope of gp160 clone B-Chronic-014.c02 (HIV-1); assay: capture ELISA, plate 2, mAb 0.3 ug/ml
[34] = target: HIV-1 JRFL envelope (HIV-1); assay: capture ELISA, plate 2, mAb 0.3 ug/ml
[35] = target: HIV-1 envelope clone BF-002.c05 (multiclade gp160 clone panel) (HIV-1); assay: capture ELISA, plate 2, mAb 0.3 ug/ml
[36] = target: HIV-1 envelope clone F1-002.c16 (multiclade gp160 clone panel) (HIV-1); assay: capture ELISA, plate 2, mAb 0.3 ug/ml
[37] = target: HIV-1 envelope clone BF-002.c08 (multiclade gp160 clone panel) (HIV-1); assay: capture ELISA, plate 2, mAb 0.3 ug/ml

In the case of PGT151 (antibody), the ELISA OD [1] is reported as 0.055 OD, the ELISA OD [2] is reported as 0.174 OD and the ELISA OD [3] is reported as 0.056 OD and 0.061 OD. The ELISA OD [4] was 0.071 OD, the ELISA OD [5] was 0.061 OD and the ELISA OD [6] was 0.148 OD. The ELISA OD [7] was 0.066 OD and 0.05 OD, the ELISA OD [8] was 0.117 OD and the ELISA OD [9] was 0.068 OD. For the same substance, the ELISA OD [10] was 0.078 OD and 0.068 OD, the ELISA OD [11] was 0.095 OD and the ELISA OD [12] was 0.115 OD. It also gave an ELISA OD [13] of 0.148 OD, an ELISA OD [14] of 0.086 OD and an ELISA OD [15] of 0.149 OD. For the same substance, the ELISA OD [16] was 0.128 OD, the ELISA OD [17] was 0.113 OD and the ELISA OD [18] was 0.203 OD. The ELISA OD [19] was 0.098 OD and 0.072 OD, the ELISA OD [20] was 0.114 OD and the ELISA OD [21] was 0.067 OD. The ELISA OD [22] was 0.069 OD and 0.065 OD, the ELISA OD [23] was 0.072 OD and the ELISA OD [24] was 0.234 OD. For the same substance, the ELISA OD [25] was 0.058 OD, the ELISA OD [26] was 0.054 OD and 0.096 OD and the ELISA OD [27] was 0.149 OD. For the same substance, the ELISA OD [28] was 0.057 OD, the ELISA OD [29] was 0.121 OD and the ELISA OD [30] was 0.063 OD. For the same substance, the ELISA OD [31] was 0.116 OD, the ELISA OD [32] was 0.075 OD and the ELISA OD [33] was 0.216 OD. For the same substance, the ELISA OD [34] was 0.073 OD and 0.088 OD, the ELISA OD [35] was 0.1 OD and the ELISA OD [36] was 0.107 OD. The ELISA OD [37] was 0.09 OD.
